Assay results as given in patent US9416162B2, “Peptides having reduced toxicity that stimulate cholesterol efflux” (The Regents of the University of California, priority 2013, dated 2016).
“Also recorded” adds a separate entry of the source. Non-standard residues stand in square brackets, D forms with d. No end group written: not given here. Cit = NC(=O)NCCC[C@H](N)C(=O)O

Tests used:
Assay type in all cases: cell-based
ABCA1 [1] = molecular target: T1, ABCA1 (Mus musculus, UniProt P41233); assay: ABCA1-dependent [3H]cholesterol efflux from J774 macrophages with and without cAMP
T1 construct: treated (18 h) with a cAMP analog to induce ABCA1 protein expression; endogenous in cells; host or cells: J774 macrophages
T1 sequence (P41233 whole entry): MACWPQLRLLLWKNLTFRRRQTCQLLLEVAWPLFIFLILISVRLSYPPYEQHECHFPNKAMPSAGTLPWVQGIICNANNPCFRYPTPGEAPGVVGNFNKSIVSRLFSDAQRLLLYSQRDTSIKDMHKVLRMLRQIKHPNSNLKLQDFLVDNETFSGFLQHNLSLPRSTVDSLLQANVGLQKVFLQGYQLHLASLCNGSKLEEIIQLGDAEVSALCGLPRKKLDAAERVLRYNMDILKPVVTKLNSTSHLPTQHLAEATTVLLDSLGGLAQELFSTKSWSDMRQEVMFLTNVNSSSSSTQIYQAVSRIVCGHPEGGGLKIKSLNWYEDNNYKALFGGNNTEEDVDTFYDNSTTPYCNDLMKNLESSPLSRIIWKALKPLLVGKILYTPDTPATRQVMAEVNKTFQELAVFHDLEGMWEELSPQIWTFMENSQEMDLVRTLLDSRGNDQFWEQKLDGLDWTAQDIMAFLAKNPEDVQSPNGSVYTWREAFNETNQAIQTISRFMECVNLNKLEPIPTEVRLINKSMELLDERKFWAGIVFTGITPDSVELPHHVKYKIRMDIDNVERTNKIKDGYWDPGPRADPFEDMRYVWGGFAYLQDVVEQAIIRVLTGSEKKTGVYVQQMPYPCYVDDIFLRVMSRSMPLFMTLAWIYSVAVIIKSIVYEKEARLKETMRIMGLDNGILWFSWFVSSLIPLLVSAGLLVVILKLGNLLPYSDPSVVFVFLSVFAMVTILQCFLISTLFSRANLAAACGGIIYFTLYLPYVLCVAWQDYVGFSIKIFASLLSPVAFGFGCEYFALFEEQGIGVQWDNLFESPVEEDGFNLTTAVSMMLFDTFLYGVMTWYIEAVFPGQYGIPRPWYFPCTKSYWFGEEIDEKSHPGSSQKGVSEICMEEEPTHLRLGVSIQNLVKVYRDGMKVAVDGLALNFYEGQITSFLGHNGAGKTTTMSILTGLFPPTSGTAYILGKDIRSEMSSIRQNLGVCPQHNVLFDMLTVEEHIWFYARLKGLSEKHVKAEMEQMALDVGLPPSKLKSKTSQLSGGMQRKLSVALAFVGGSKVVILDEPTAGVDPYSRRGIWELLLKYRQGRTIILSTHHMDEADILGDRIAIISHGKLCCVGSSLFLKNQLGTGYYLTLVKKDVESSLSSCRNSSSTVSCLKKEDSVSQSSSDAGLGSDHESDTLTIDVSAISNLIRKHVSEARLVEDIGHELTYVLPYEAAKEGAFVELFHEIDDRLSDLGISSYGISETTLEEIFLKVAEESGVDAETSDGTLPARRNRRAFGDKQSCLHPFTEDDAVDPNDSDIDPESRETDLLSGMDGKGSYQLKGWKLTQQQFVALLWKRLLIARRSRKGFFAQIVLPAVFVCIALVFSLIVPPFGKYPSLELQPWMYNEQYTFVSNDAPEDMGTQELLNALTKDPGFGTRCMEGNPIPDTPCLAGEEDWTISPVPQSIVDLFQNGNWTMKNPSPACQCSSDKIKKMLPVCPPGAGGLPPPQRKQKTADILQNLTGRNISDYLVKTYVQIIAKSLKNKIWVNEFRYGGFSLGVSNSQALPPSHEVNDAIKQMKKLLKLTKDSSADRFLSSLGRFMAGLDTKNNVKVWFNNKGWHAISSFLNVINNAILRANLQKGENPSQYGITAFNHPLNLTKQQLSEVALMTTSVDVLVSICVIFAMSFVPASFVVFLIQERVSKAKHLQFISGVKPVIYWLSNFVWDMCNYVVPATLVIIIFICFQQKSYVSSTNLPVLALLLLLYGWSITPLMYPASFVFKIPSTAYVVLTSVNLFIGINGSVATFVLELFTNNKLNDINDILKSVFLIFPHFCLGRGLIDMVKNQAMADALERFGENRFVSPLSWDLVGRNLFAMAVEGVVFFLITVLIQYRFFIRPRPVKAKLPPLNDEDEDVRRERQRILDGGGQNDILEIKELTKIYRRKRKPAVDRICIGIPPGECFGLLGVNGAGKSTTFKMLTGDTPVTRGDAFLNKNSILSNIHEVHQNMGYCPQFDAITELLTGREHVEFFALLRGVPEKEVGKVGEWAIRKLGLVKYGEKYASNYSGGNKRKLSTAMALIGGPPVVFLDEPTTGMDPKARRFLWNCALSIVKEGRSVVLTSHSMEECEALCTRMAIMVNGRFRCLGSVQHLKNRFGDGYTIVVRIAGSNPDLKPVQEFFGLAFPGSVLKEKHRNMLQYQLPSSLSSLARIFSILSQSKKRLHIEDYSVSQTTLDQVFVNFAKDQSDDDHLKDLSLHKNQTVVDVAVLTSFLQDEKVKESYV
Source text: Suitable cholesterol efflux assays are described in, e.g., Bielicki, J. K and Oda, M. N., Biochemistry, 41:2089-2096 (2002); Jia et al., Biochem. Biophys. Res. Common., 297:206-213 (2002). In some embodiments, a polypeptide known to mediate cholesterol efflux (e.g., helix 9/10 of Apo A-I) is used to screen for additional mediators of cholesterol efflux in a cell based assay. For example, cell lines in which cholesterol efflux can be enhanced using a cAMP analog that up-regulates ABCA1 protein expression (e.g., J774 macrophages) can conveniently be used to assess the ability of a polypeptide of the present invention to mediate cholesterol efflux. The cells are incubated with labeled cholesterol (e.g., [^3H]cholesterol) under conditions appropriate for cholesterol uptake by the cells. Thus, cAMP or cAMP analogs (e.g., CPT-cAMP) are incubated with the cells for a suitable time before the initiation of cellular cholesterol efflux, i.e., prior to contacting the cells with a test polypeptide. Measurement of labeled cholesterol appearing in the medium is used to determine the cholesterol efflux mediating activity of the test polypeptide.
Aliphatic analogs of ATI-5261 lacking phenylalanine residues retained potent ABCA1 selective cholesterol efflux activity (FIG. 7). J774 macrophages were labeled (48 h) with [^3H]cholesterol and treated (18 h) with a cAMP analog to induce ABCA1 protein expression; cells incubated in the absence of cAMP (left bars) served as controls. […] Peptides were used at a concentration of 30 μg/ml, which was maximal for promoting cholesterol efflux activity. Panel B—Dependence of cholesterol efflux on the concentration of peptides. […] Results are expressed as the difference in cholesterol efflux (%/4 h) observed using cAMP treated vs. non-treated J774 cells. Values are means±SD, n=3.

ABCA1 [2] = molecular target: T1, ABCA1; assay: as above; design: ABCA1-dependent cholesterol efflux: dose or concentration left out as unconfirmed
human plasma = assay: Cholesterol efflux activity of human plasma treated with lipid-free peptide (J774 cells); conditions: human plasma with 300 μg/ml peptide 5 minutes (4° C.), diluted to 1%, cAMP treated J774 cells, vs vehicle-treated plasma
Procedure: To test whether CS6253 exerts anti-atherogenic effects in a biological milieu, human plasma was exposed (5 min) to lipid-free peptide. Interactions of CS6253 with HDL and activity of plasma to stimulate cholesterol efflux was assessed, using J774 macrophages labeled with [^3H]cholesterol. Panel A—Cholesterol efflux activity of plasma treated with lipid-free peptides. Human plasma was incubated with 300 μg/ml peptides for 5 minutes (4° C.), diluted to 1% in serum-free RPMI-1640 culture medium and immediately added to [^3H]cholesterol-labeled J774 cells. […] Panel B—Induction of preβ HDL upon treatment of human plasma with CS6253. Plasma was exposed to a small amount of peptide relative to endogenous apoA-I (1:10 mole ratio, respectively) and formation of preβ HDL assessed by 2D non-denaturing gradient gel electrophoresis (NDGGE) and western blot analysis. […] This is consistent with no peptide being associated with the preβ HDL fraction, indicating the particles were authentic preβ particles composed on endogenous apoA-I.

ABCG1 = molecular target: T2, ABCG1 (Homo sapiens, UniProt P45844); assay: ABCG1 mediated cholesterol efflux from BHK cells stably transfected with ABCG1; conditions: BHK cells ABCG1 vs. mock transfected, 50 μg peptide/ml serum-free medium
T2 construct: expressed in transfected cells; host or cells: BHK cells, stably transfected
Procedure: To further evaluate potential anti-atherogenic mechanisms of CS6253, BHK cells stably transfected with ABCG1 and mock-transfected control cells were labeled with [3H]cholesterol and used in efflux experiments. The citrulline form of LeuATI-5261 (CS6253) lipidated with POPC and ATI-5261 were used as cholesterol efflux acceptors at 50 μg peptide/ml serum-free medium. Panel A—Time-course for ABCG1 mediated cholesterol efflux from cells to lipid-free CS6253 peptide or CS6253:POPC complexes. […] Panel B—Comparison between CS6253 and ATI-5261 in mediating cellular cholesterol efflux via ABCG1. [3H]cholesterol labeled BHK cells (ABCG1 vs. mock transfected) were incubated with either lipid-free peptide or peptides formulated with POPC.

ABCA1 [3] = molecular target: T1, ABCA1; assay: ABCA1 protein stabilization, western blot of J774 whole-cell lysates; conditions: J774 cells after cAMP treatment, continued presence of peptide
Procedure: In some embodiments, the stabilization of ABCA is measured by direct measurement of ABCA (e.g., ABCA protein, or nucleic acid) using a cell based assay. Cell based assays can be performed in any cells in which ABCA is expressed (e.g., J774 macrophages), including cells which have been transfected with ABCA (e.g. HeLa cells). Any cell type can be used. For example, J774 macrophages can be used to assess relative ABCA1 protein levels in the presence and absence of polypeptides of the invention. The cells are first contacted with a compound that will induce ABCA (e.g., cAMP or a cAMP analogue such as, 8-bromo-cAMP) to upregulate ABCA (e.g., ABCA1) expression, then exposed to […] polypeptides of the invention in the absence of the cAMP stimulus to evaluate whether ABCA1 protein was stabilized or degraded. Relative levels of ABCA1 protein can be assessed using any means known in the art including, e.g., immunoblot analysis of cell membranes (Oram et al., J. Biol. Chem., 278:52379-52385 (2003)) or hybridization of nucleic acid probes to ABCA mRNA.
J774 macrophages were used for experiments. Panel A—Cells were labeled (48 h) with 3H cholesterol and treated with (right bars) and without (left bars) a cAMP analog to modulate ABCA1 expression. […]

[4] = cAMP treated J774 cells, increasing concentration of peptides, 4 h

| Substance | peptide concentration at saturation in cholesterol efflux (ABCA1 [1]; [4]) | ABCA1-dependent cholesterol efflux activity (ABCA1 [2]; J774 macrophages with/without cAMP, peptide 10 μg/ml) | capacity of peptide-treated plasma to stimulate cholesterol efflux via ABCA1 (human plasma) | ABCG1 mediated cholesterol efflux (ABCG1) | cholesterol efflux activity compared with parent ATI-5261 (ABCA1 [1]; J774 cells with and without cAMP) | Km (cholesterol efflux potency) on molar basis (ABCA1 [1]; cAMP treated J774, lipid-free peptide, 4 h, Michaelis Menten equation) | Km for cholesterol efflux (ABCA1 [1]; [4]) | ABCA1 protein levels (stabilization) (ABCA1 [3]) | ABCA1-dependent cholesterol efflux (ABCA1 [2]; J774 with/without cAMP, acceptors lipid-free, 4 h) |
| --- | --- | --- | --- | --- | --- | --- | --- | --- | --- |
| ATI-5261: HDL mimetic peptide, parent peptide; triglyceride elevating and muscle toxic peptide used as positive control (EVRSKLEEWFAAFREFAEEFLARLKS) [reference compound] | roughly 3 μg/ml | overall greater efflux response | greater capacity to stimulate cholesterol efflux | poorly active | – | – | – | – | – |
| EVCitSKLEEWLAALCitELAEELLARLKS (SEQ ID NO:2) (EV[Cit]SKLEEWLAAL[Cit]ELAEELLARLKS) [CS6253, citrulline form of LeuATI-5261, R3,14→Citrulline, 26-mer] | 3 µg/mL | – | greater capacity to stimulate cholesterol efflux | relatively poor activity | identical to that observed using the parent ATI-5261 peptide | near apolipoproteins molar potency | high potency; also recorded: low Km | maintained at high levels | stimulated ABCA1-dependent cholesterol efflux similar to native apolipoproteins |
